Patent US20240182594A1

Biological target: human OX40 (human) (UniProt P43489)
Assay: cell-based or functional assay

UniProt P43489, sequence (P43489 29-277): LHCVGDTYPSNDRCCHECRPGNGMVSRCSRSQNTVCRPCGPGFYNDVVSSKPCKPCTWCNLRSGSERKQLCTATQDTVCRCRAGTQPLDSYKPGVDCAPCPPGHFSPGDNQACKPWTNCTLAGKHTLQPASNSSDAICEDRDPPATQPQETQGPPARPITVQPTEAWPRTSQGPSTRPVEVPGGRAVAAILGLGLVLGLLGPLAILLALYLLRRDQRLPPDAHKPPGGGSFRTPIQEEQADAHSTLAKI

EC50 for T cell costimulation (proliferation of activated CD4+ Teff cells, CellTiter-Glo): 14 µg/mL
Substance: soluble OX40 ligand (BPS Biosciences, Catalog #71185) (from UniProt P23510 51-183)
